Source: US20220177605A1 (University of Washington, published 2022)

B1: dimerization binder DB-21 (VHH)
VHH: EVQLQASGGGFVQPGGSLRLSCAASGTTYGQTNMGWFRQAPGKEREFVSAISGLQGRDLYYADSVKGRFTISRDNSKNTVYLQMNSLRAEDTATYYCAFHDFLRMWEYWGQGTQVTVSS
modifications: AviTag biotinylated by BirA (BLI)
notes: Purified and tagged in BLI (biotinylated) and SEC; the form used in the sandwich ELISA-like assay is not clearly stated (same id used for all); not shown: C-terminal AviTag and His tag (purified form)
B2: dimerization binder DB-18 (VHH)
VHH: EVQLQASGGGFVQPGGSLRLSCAASGGYSRADDMGWFRQAPGKEREFVSAISFGETDSFYYADSVKGRFTISRDNSKNTVYLQMNSLRAEDTATYYCAYHNYTNMFEYWGQGTQVTVSS
modifications: AviTag biotinylated by BirA (BLI)
notes: Purified and tagged in BLI (biotinylated) and SEC; also called 1DB-18; not shown: C-terminal AviTag and His tag (purified form)
B3: dimerization binder DB-11 (VHH)
VHH: EVQLQASGGGFVQPGGSLRLSCAASGTTSDNDTMGWFRQAPGKEREFVSAISWNGGRDEYYADSVKGRFTISRDNSKNTVYLQMNSLRAEDTATYYCAYQDNRSWQEYWGQGTQVTVSS
modifications: AviTag biotinylated by BirA (BLI)
notes: Purified, tagged and biotinylated in BLI; not shown: C-terminal AviTag and His tag (purified form)
B4: dimerization binder DB-6 (VHH)
VHH: EVQLQASGGGFVQPGGSLRLSCAASGRFSWGEEMGWFRQAPGKEREFVSAISWAATPWQYYADSVKGRFTISRDNSKNTVYLQMNSLRAEDTATYYCADEWHIGHVSYWGQGTQVTVSS
modifications: AviTag biotinylated by BirA (BLI)
notes: as for B3

How the values were obtained:
[1] = target: T1, CA-14 bound to cannabidiol (CA-14-CBD complex) (non-covalently bound cannabidiol (CBD); AviTag biotinylated by BirA where immobilised (ELISA)); assay: BLI (Octet RED96), biotinylated DB on streptavidin sensor, 1 uM CA-14 pre-equilibrated with CBD
T1 construct: Same polypeptide as m1, pre-equilibrated with the small molecule cannabidiol; also called CBD-CA-14 complex; not shown: C-terminal AviTag and His tag
Source text: (§1) With the purified DB nanobodies in hand, we first sought to determine their binding affinities to the CA-14-CBD. CBD might directly bind to selected dimerization binders, which can affect the affinity measurement. To rule out this possibility, the four nanobodies were biotinylated (FIG. 7c) and immobilized on streptavidin biosensors, and the interaction with CBD was detected by BL1. Only minimal binding between CBD and the dimerization binders was detected (data not shown). Moreover, the binding-dissociation dynamics of the CA-14-CBD complex can also affect the measurement of dimerization binder affinities. To address this, the affinity was measured by a BLI assay in which the biosensor-immobilized dimerization binders were interacted with CA-14 pre-equilibrated with varied concentrations of CBD (FIG. 9a). The concentrations of the CA-14-CBD complex in equilibrium were calculated based on input CA-14 and CBD concentrations. The CA-14-CBD complex concentration was approximated to be constant because only a minimal fraction of the complex bound to the biosensor tips during the BLI assay. It was confirmed that CA-14 only interacts with the dimerization binders in the presence of CBD (FIG. 3a).
The nanobody binding kinetics was analyzed using an Octet™ RED96 system (ForteBio) and Streptavidin (SA) or Super Streptavidin (SSA) biosensors. For the anchor-binder analysis, 200 nM biotinylated anchor binders were immobilized on SSA biosensors with a binding assay buffer (1×PBS, pH 7.4, 0.05% Tween 20, 0.2% BSA, 3% methanol; Note: because CBD and THC were dissolved in methanol to make stock solutions, 3% methanol was added to the buffer to fairly compare samples and controls). Serial dilutions of CBD and THC were used for the anchor binder assays. Dissociation constants (KDS) of anchor binder-ligand interactions were calculated based on a steady-state analysis using Octet™ RED96 data analysis software.

[2] = target: T1, CA-14 bound to cannabidiol (CA-14-CBD …); assay: BLI; biotinylated DB-18 on streptavidin biosensors, analyte CA-14 pre-equilibrated with CBD; value printed in the scheme of ternary complex formation
Source text: as §1, with “It was confirmed that CA-14 only interacts with the dimerization binders in the presence of CBD (FIG. 3a).” left out
The nanobody binding kinetics was analyzed using an Octet™ RED96 system (ForteBio) and Streptavidin (SA) or Super Streptavidin (SSA) biosensors. […] Dissociation constants (KDS) of anchor binder-ligand interactions were calculated based on a steady-state analysis using Octet™ RED96 data analysis software.

Binder	Kd [1] [nM]	koff [1] [s⁻¹]	kon [1] [M⁻¹ s⁻¹]	Kd [2] [nM]
B1	56.4	0.000617	11000	–
B2	553	0.0227	41000	553
B3	1380	0.084	61000	–
B4	19000	0.182	9600	–
